Test results taken from US20200054764A1, “MEDICAL USE OF ANTI-C MET ANTIBODY-CYTOTOXIC DRUG CONJUGATE” (priority 2016, published 2020).

What was measured:
c-Met antigen Sema-His = target: T1, c-Met antigen Sema-His (Homo sapiens, UniProt P08581); assay: SPR (BIACore) affinity to c-Met antigen; assay type: binding; conditions: 1:1 Langmuir model
T1 construct: Flag (C); His tag (6xHis) (C); made in house; host or cells: 293F cells (Invitrogen, Cat # R790-07); vector pEE6.4; c-Met gene template origene RC217003
T1 sequence (P08581 with tags, fused parts or gaps limits assumed): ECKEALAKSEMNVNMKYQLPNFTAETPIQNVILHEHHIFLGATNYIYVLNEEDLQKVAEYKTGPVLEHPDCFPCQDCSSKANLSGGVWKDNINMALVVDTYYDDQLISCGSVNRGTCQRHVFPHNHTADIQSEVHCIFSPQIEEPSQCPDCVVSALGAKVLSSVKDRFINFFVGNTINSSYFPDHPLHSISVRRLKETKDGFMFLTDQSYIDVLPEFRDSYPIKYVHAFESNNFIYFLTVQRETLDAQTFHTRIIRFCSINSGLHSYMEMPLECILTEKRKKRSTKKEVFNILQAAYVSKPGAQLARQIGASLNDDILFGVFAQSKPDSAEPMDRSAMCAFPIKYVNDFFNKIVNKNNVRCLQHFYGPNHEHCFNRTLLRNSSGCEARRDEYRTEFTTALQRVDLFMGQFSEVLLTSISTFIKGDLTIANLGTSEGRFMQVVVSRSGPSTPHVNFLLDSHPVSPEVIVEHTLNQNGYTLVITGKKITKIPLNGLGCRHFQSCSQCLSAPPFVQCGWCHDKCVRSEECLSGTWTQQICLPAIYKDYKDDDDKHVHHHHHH
Description: The affinity of c-Met antibody to c-Met antigen Sema-His was detected by surface plasmon resonance (SPR) in the invention.
Anti-mouse IgG (GE Life Sciences catalog # BR-1008-38) or anti-human IgG (GE Life Sciences catalog # BR-1008-39) antibodies were respectively diluted to 30 μg/mL and 50 μg/mL by sodium acetate solution pH 5.0 (GE Healthcare, Cat # BR-1003-51). An amino coupling kit (GE Life Sciences, Cat # BR100050) […] the test channels and control channels on a CM5 chip (GE Life Sciences catalog # BR-1000-12), and the coupling level was set at 15000 RU. The c-Met antibody was diluted with Running buffer PBS (Hyclone, Cat # SH30256.01B)+0.05% P20 (GE Life Sciences, Cat # BR-1000-54) to 1.5 μg/mL. Antigen Sema-His was diluted to 200 nM with running buffer, and then diluted at a 1:2 dilution with the same buffer until 0.78 nM was reached. The diluted antibody passed through the test channel for 1 minute at a speed of 30 μL/min, and the antigen passed through the test channels and control channels for 3 minutes at the same speed. 10 minutes after dissociation, the flow speed was adjusted to 10 μL/min, and regeneration buffer was passed through test channels and control channels for 3 minutes. Data was fitted by BiaEvaluation 4.1 after double deduction, and the fitting model was a 1:1 Langmuir model.

human c-Met-His = target: T2, human c-Met-His (Homo sapiens, UniProt P08581); assay: ELISA binding of c-Met antibody to c-Met antigen; conditions: humanized antibody
T2 construct: His tag (6xHis) (C); made in house; host or cells: 293F cells (Invitrogen, Cat # R790-07); vector pEE6.4; c-Met gene template origene RC217003
T2 sequence (P08581 with tags, fused parts or gaps limits assumed): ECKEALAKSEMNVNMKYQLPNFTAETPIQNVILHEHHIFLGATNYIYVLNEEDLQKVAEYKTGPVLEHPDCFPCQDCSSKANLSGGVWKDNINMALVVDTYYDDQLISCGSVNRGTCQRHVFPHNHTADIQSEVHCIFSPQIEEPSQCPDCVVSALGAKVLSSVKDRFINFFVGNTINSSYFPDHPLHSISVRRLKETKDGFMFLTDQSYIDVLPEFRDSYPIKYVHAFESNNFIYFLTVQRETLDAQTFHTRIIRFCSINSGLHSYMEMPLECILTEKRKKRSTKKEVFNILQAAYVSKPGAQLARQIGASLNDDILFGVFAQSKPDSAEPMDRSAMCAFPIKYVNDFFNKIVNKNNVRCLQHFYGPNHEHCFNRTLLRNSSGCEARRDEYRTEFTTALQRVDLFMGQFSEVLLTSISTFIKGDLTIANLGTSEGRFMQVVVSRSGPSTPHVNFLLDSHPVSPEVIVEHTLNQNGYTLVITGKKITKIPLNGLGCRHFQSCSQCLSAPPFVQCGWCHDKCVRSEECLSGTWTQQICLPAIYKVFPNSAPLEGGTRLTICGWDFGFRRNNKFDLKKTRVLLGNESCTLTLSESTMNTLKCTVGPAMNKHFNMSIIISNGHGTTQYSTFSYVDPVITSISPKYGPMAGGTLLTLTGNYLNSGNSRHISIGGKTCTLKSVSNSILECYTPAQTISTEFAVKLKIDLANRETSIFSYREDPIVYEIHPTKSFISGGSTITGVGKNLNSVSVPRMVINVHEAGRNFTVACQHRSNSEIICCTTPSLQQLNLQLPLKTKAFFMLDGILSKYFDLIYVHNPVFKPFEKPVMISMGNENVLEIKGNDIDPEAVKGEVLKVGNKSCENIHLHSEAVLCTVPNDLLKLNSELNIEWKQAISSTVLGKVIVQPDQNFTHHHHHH
Description: This experiment uses enzyme linked immunosorbent assay to detect affinity of c-Met antibody (including supermatant of hybridonma or recombinant expressed monoclonal antibodies) to c-Met antigen in vitro.
Experimental procedures: Coating buffer (PBS; Hyclone, Cat No.: SH30256.01B) was used to dilute antigen (human c-Met-His, example 1) to 2 μg/mL, which was added to a 96-well microplate at 100 μL/well (Costar 9018, Cat No.:03113024) and incubated overnight at 4° C. […] The plate was read with plate reader at 450 nm.
Murine anti-human c-Met monoclonal cell lines were obtained by immunizing mice, fusion of spleen cells, and screening of hybridomas. […] After the first booster immunization, mice serum was collected during 7 to 10 days after each booster immunization, and the titer was detected by ELISA (Methods were described in Example 2).
After immunization, mice with a serum titer higher than 1:10^5 were selected for cell fusion. Mouse B-cells and myeloma cells (SP2/0, ATCC number:CRL-1581™) were prepared respectively in aseptic conditions and counted. […] The next day, positive clones were detected by ELISA (see Methods in Example 2).

B1: Ab-9 (antibody)
heavy: QVTLKESGPVLVKPTETLTLTCTVSGFSLPNYGVHWVRQPPGKALEWLAVIWSGGSTNYAAAFVSRLRISKDTSKSQVVFTMNNMDPVDTATYYCARNHDNPYNYAMDYWGQGTTVTVSSASTKGPSVFPLAPCSRSTSESTAALGCLVKDYFPEPVTVSWNSGALTSGVHTFPAVLQSSGLYSLSSVVTVPSSNFGTQTYTCNVDHKPSNTKVDKTVERKCCVECPPCPAPPVAGPSVFLFPPKPKDTLMISRTPEVTCVVVDVSHEDPEVQFNWYVDGVEVHNAKTKPREEQFNSTFRVVSVLTVVHQDWLNGKEYKCKVSNKGLPAPIEKTISKTKGQPREPQVYTLPPSREEMTKNQVSLTCLVKGFYPSDIAVEWESNGQPENNYKTTPPMLDSDGSFFLYSKLTVDKSRWQQGNVFSCSVMHEALHNHYTQKSLSLSPGK
light: DIVLTQSPASLAVSPGQRATITCRANKSVSTSTYNYLHWYQQKPGQPPKLLIYLASNLASGVPARFSGSGSGTDFTLTINPVEANDTANYYCQHSRDLPPTFGQGTKLEIKRTVAAPSVFIFPPSDEQLKSGTASVVCLLNNFYPREAKVQWKVDNALQSGNSQESVTEQDSKDSTYSLSSTLTLSKADYEKHKVYACEVTHQGLSSPVTKSFNRGEC
Work on B1 yielded a Kd (c-Met antigen Sema-His) of 4 nM and an EC50 (human c-Met-His) of 0.13 nM.
